Reference: publication PMC7710607

Target: ACSL1 (UniProt P41216)
Test: GST-TBK1 binding to bead-bound flag-ACSL1
Settings: reference: ΔC (1-657) wild type; sites S172

mouse TBK1 (mTBK1, GST-TBK1) C-terminal truncated, 1-657 (from UniProt Q9WUN2) ΔC (1-657) S172A
binding against the reference: stronger
